Laboratory results from US20260209357A1.
pKd: −log10 of the molar value.

Key:
Experiment in all cases: SPR, ligand directly immobilised, soluble Fcγ receptor as analyte, pH 7.3
[1] = target: human FcγRIIIA (CD16a) (human) (UniProt P08637)
[2] = target: human FcγRIIB (CD32B) (human) (UniProt P31994)
[3] = target: human FcγRI (CD64) (human) (UniProt P12314)
Sequence of human FcγRI (CD64) (human) (P12314 16-292): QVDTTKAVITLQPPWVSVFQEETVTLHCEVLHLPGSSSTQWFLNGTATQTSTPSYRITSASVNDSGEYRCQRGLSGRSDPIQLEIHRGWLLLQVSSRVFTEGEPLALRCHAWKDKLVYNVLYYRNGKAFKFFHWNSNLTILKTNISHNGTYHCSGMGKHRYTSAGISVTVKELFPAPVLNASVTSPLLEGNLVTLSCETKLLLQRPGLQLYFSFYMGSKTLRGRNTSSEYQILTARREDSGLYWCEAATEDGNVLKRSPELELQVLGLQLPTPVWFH

Sequence of human FcγRIIB (CD32B) (human) (P31994 43-217): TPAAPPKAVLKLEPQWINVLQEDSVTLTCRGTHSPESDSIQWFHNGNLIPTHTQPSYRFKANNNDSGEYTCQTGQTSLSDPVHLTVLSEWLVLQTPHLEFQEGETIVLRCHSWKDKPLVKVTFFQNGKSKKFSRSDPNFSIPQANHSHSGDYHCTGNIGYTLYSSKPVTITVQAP
Sequence of human FcγRIIIA (CD16a) (human) (P08637 17-208): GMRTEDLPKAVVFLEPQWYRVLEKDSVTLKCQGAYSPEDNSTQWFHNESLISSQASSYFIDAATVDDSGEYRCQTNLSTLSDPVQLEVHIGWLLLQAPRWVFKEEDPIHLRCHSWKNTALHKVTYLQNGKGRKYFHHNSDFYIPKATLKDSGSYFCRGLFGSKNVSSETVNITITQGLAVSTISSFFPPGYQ

huIgG1 (antibody)
pKd [1]: 5.35 | pKd [2]: 5.24 | pKd [3]: 9.46
